For assay [1], the target named is T1, FGFR4 (acro) (UniProt P22455 22-369).
T1 sequence (looked up): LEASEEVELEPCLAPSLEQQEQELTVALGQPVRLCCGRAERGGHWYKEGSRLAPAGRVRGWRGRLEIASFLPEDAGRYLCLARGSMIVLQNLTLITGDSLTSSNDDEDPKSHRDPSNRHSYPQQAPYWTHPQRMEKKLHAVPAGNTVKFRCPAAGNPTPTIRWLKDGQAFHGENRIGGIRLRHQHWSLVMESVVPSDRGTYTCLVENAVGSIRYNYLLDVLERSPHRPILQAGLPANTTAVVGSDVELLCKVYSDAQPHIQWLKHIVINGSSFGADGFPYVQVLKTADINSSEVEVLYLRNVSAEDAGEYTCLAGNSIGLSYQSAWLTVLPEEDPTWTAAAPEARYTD
Put plainly: ELISA.

For assay [2], the target named is T2, FGFR2c (acro) (UniProt P21802 22-377). Nature of the assay: ELISA. (ELISA stands for enzyme-linked immunosorbent assay.)
Assay [3] has as its target T3, recombinant cynomolgus monkey FGFR2b (cynomolgus monkey).
T3 construct: extracellular domain; bought; also called cynomolgus macaque FGFR2b
Put plainly: ELISA, antibody 1ug/mL.

In assay [4] the target is T4, human FGFR2b (Kaixia Biotechnology, catalog number FGR-HM1BB) (human, UniProt P21802-3 22-378).
T4 construct: extracellular domain; bought; also called hFGFR2b; human FGFR2b protein
Put plainly: ELISA, FGFR2b coated at 1 µg/ml.

For the next assay, the target named is T5, FGFR2b on KATO III cells (human, UniProt P21802-3 22-822).
T5 construct: whole, on cells; also called KATO III cells that overexpress FGFR2b
Put plainly: flow cytometry, KATO III cells.

Assay [5] addresses T2, FGFR2c (acro). Put plainly: ELISA, antibody 10 µg/mL.
For assay [6], the target named is T1, FGFR4 (acro). Nature of the assay: ELISA, antibody 10 µg/mL.
The target in assay [7] is T4, human FGFR2b (Kaixia Biotechnology, …). Nature of the assay: BLI, antibody on AHC2 sensor.

From patent EP4714976A1 (Sunshine Lake Pharma Co., Ltd., dated 2026) come the findings set out here.

T4 sequence (P21802 other isoform, or with tags, fused parts or gaps): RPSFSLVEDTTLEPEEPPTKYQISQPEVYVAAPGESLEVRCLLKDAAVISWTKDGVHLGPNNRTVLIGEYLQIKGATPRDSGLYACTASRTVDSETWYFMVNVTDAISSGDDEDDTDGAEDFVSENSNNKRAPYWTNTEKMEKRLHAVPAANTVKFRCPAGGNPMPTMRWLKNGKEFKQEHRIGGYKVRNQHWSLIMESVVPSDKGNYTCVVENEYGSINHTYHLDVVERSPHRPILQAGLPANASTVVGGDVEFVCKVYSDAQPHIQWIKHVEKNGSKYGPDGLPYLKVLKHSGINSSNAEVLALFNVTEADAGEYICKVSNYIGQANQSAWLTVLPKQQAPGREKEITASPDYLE
T5 sequence (P21802 other isoform, or with tags, fused parts or gaps): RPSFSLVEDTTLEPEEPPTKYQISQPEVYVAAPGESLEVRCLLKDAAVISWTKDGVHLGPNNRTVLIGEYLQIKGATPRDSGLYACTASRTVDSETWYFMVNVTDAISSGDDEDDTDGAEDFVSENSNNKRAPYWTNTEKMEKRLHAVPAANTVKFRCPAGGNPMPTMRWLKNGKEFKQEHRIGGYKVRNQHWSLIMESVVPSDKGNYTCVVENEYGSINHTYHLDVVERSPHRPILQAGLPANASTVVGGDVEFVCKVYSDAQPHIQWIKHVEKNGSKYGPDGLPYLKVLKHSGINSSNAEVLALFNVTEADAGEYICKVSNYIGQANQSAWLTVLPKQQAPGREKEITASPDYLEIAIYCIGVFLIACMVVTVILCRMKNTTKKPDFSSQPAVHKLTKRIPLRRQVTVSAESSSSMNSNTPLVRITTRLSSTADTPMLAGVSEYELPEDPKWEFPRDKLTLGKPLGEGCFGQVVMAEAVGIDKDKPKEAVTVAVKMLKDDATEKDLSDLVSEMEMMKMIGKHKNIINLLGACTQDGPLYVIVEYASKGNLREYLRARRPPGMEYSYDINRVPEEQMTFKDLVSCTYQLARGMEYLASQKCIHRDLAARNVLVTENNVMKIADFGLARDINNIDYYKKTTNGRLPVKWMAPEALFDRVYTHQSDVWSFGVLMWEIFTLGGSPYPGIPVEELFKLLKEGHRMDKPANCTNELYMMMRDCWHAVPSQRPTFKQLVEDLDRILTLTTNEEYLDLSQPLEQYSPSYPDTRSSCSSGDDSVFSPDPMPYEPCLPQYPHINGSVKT
T2 sequence (P21802 22-377): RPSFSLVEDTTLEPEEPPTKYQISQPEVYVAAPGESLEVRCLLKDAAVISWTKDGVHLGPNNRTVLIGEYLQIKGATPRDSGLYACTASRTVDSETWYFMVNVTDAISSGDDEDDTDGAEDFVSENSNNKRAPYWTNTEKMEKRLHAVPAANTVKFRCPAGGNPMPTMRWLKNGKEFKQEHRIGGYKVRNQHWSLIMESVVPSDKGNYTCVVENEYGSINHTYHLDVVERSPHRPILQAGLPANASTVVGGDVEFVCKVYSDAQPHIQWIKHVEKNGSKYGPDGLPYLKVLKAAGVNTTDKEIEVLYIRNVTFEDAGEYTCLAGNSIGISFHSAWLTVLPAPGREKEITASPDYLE

B1: 1D7 scFv-Fc (Fc fusion)
chain: QIQLQQSGAELVKPGASVKMSCKASGYTFRYYNMHWVKRTPGQGLEWIGLIYPDNGDTSYNQKFKGKATLTADTSSSTAYMQLSSLTSEDSAVYYCARGGLDYWGQGTSLTVSSGGGGSGGGGSGGGGSDIQMTQSPSSMSASLGDRITITCQATQDIVKNLNWYQQKPGKPPSFLIYYATELAEGVPSRFSGSGSGSDYSLTISNLESEDFADYYCLQFYEFPLTFGAGTKLELKESKYGPPCPPCPAPEAAGGPSVFLFPPKPKDTLMISRTPEVTCVVVDVSQEDPEVQFNWYVDGVEVHNAKTKPREEQFNSTYRVVSVLTVLHQDWLNGKEYKCKVSNKGLPSSIEKTISKAKGQPREPQVYTLPPSQEEMTKNQVSLTCLVKGFYPSDIAVEWESNGQPENNYKTTPPVLDSDGSFFLYSKLTVDKSRWQEGNVFSCSVMHEALHNHYTQKSLSLSLG
notes: scFv-Fc dimer
As to B1, the binding result with FGFR4 (acro) [1] and with FGFR2c (acro) [2] was “no binding (tested: 10 µg/mL)” throughout. Moreover, the “OD (450 nm) value” in assay [3] amounted to 3.17; with FGFR2c (acro) [5], 0.091; with FGFR4 (acro) [6], 0.156. Moreover, the 50% effective concentration (EC50) is 0.0154 mg/L in assay [4] and 0.167 mg/L with FGFR2b on KATO III cells. Moreover, the Kd in assay [7] was found to be 4.51 nM. Further, in assay [7], the koff worked out at 0.00208 s⁻¹. For the same molecule, the kon in assay [7] amounted to 460000 M⁻¹ s⁻¹.

B2: 3D7 scFv-Fc (Fc fusion)
chain: QVQLQQSGAELVKPGASVKMSCKASGYTFSFYNMHWVKRTPGRGLEWIGLIYPDNGDTSYNQKFKGKATLTADTSSSTAYMQLSSLTSEDSAVYYCARGGLDYWGQGTSLTVSSGGGGSGGGGSGGGGSEIVLTQSPASLAVSLGQRATISCKASQSVDYDGDSYMNWYQQKPGQPPKLLIYGISNRFSGVPDRFSGSGSGTDFTLKISTIKPEDLGMYYCLQGTHQPYTFGGGTKLEIKESKYGPPCPPCPAPEAAGGPSVFLFPPKPKDTLMISRTPEVTCVVVDVSQEDPEVQFNWYVDGVEVHNAKTKPREEQFNSTYRVVSVLTVLHQDWLNGKEYKCKVSNKGLPSSIEKTISKAKGQPREPQVYTLPPSQEEMTKNQVSLTCLVKGFYPSDIAVEWESNGQPENNYKTTPPVLDSDGSFFLYSKLTVDKSRWQEGNVFSCSVMHEALHNHYTQKSLSLSLG
notes: scFv-Fc dimer
On to B2, for which, in the assay with FGFR2c (acro) [2], the binding result is “no binding (tested: 10 µg/mL)”. Also, in assay [3], the “OD (450 nm) value” is 3.3. The molecule also returned an EC50 in assay [4] of 0.0369 mg/L. The molecule further gave an EC50 with FGFR2b on KATO III cells of 0.259 mg/L. Further, the “OD (450 nm) value” with FGFR2c (acro) [5] was 0.127. In assay [7], the Kd was 8.58 nM, the dissociation rate constant (koff) stood at 0.00203 s⁻¹ and the on-rate (kon) came to 236000 M⁻¹ s⁻¹.

B3: 3B7 scFv-Fc (Fc fusion)
chain: EVQLQQSGAELVKPGASVKMSCKASGYTFRYYNMHWVKRTPGQGLEWIGLIYPDNGDTSYNQKFKGKATLTADTSSSTAYMQLSSLTSEDSAVYYCARGGFDYWGQGTTLTVSSGGGGSGGGGSGGGGSDIQMTQSPASLSASVGETVTITCGASENIYGALNWYQRKQGKSPQLLIYGATNLADGMSSRFSGSGSGRQYSLKISSLHPDDVATYYCQNVLSTPYTFGGGTKLELKESKYGPPCPPCPAPEAAGGPSVFLFPPKPKDTLMISRTPEVTCVVVDVSQEDPEVQFNWYVDGVEVHNAKTKPREEQFNSTYRVVSVLTVLHQDWLNGKEYKCKVSNKGLPSSIEKTISKAKGQPREPQVYTLPPSQEEMTKNQVSLTCLVKGFYPSDIAVEWESNGQPENNYKTTPPVLDSDGSFFLYSKLTVDKSRWQEGNVFSCSVMHEALHNHYTQKSLSLSLG
notes: scFv-Fc dimer
For the molecule B3, the binding result in the assay with FGFR4 (acro) [1] and with FGFR2c (acro) [2] was “no binding (tested: 10 µg/mL)” in each case. Moreover, the “OD (450 nm) value” in assay [3] amounted to 3.12; with FGFR2c (acro) [5], 0.089; with FGFR4 (acro) [6], 0.116. In addition, the EC50 in assay [4] turned out to be 0.0147 mg/L; in the assay with FGFR2b on KATO III cells it was 0.117 mg/L. In assay [7], this molecule came in with a dissociation constant Kd of 7.6 nM. In assay [7], this molecule registered a koff of 0.00203 s⁻¹. Besides, in assay [7], the kon was found to be 267000 M⁻¹ s⁻¹.

B4: 3C9 scFv-Fc (Fc fusion)
chain: EIQLQQSGAELVKPGASVKMSCKASGYIFRYYNMHWVKRTPGQGLEWIGLIYPDNGDTSYNQKFKGKATLTADTSSSTAYMQLSSLTSEDSAVYYCARGGLDYWGQGTTLTVSSGGGGSGGGGSGGGGSDIQMIQSPASLSASVGETVTITCGASENIYGALNWYQRKQGKSPQLLIYGATNLADGMSSRFSGSGSGRQYSLKISSLHPDDVATYYCQNVLSTPYTFGGGTKLEIKESKYGPPCPPCPAPEAAGGPSVFLFPPKPKDTLMISRTPEVTCVVVDVSQEDPEVQFNWYVDGVEVHNAKTKPREEQFNSTYRVVSVLTVLHQDWLNGKEYKCKVSNKGLPSSIEKTISKAKGQPREPQVYTLPPSQEEMTKNQVSLTCLVKGFYPSDIAVEWESNGQPENNYKTTPPVLDSDGSFFLYSKLTVDKSRWQEGNVFSCSVMHEALHNHYTQKSLSLSLG
notes: scFv-Fc dimer
For the molecule B4, the binding result with FGFR4 (acro) [1] and with FGFR2c (acro) [2] was “no binding (tested: 10 µg/mL)” each time. In addition, the figures for the “OD (450 nm) value” (in assay [3]; with FGFR2c (acro) [5]; with FGFR4 (acro) [6]) were 3.25, 0.118 and 0.139, respectively. In addition, the concentration for a half-maximal effect (EC50) in assay [4] was 0.0147 mg/L; with FGFR2b on KATO III cells, 0.253 mg/L. In addition, in assay [7], the dissociation constant (Kd) is 2.7 nM. The koff in assay [7] worked out at 0.000954 s⁻¹. In assay [7], the on-rate constant (kon) stood at 353000 M⁻¹ s⁻¹.

B5: 1A3 scFv-Fc (Fc fusion)
chain: QVQLQQPGAELVKPGASVKMSCKASGYTFASYNLHWVKQTPGQGLEWIGLIYPENGDTSYNQKFKGKATLTADKSSSTAYIQLSSLTSEDSAVYFCARGGFDYWGQGTTLTVSQGGGGSGGGGSGGGGSDIQMTQSPASLSASVGETVTITCGASENIYGALNWYQRKQGKSPQLLIYGATNLADGMSSRFSGSGSGRQYSLKISSLHPDDVATYYCQNVLSTPYTFGGGTKLEIKESKYGPPCPPCPAPEAAGGPSVFLFPPKPKDTLMISRTPEVTCVVVDVSQEDPEVQFNWYVDGVEVHNAKTKPREEQFNSTYRVVSVLTVLHQDWLNGKEYKCKVSNKGLPSSIEKTISKAKGQPREPQVYTLPPSQEEMTKNQVSLTCLVKGFYPSDIAVEWESNGQPENNYKTTPPVLDSDGSFFLYSKLTVDKSRWQEGNVFSCSVMHEALHNHYTQKSLSLSLG
notes: scFv-Fc dimer
B5: the binding result with FGFR4 (acro) [1] is “no binding (tested: 10 µg/mL)”. Further, the “OD (450 nm) value” in assay [3] was determined as 3.27. The same molecule registered an EC50 in assay [4] of 0.00818 mg/L. This molecule had a concentration for a half-maximal effect (EC50) with FGFR2b on KATO III cells of 0.0656 mg/L. Further, the “OD (450 nm) value” with FGFR4 (acro) [6] was determined as 0.099. In assay [7], this molecule registered a Kd of 12.2 nM, a koff of 0.00477 s⁻¹ and an on-rate (kon) of 392000 M⁻¹ s⁻¹.

B6: 3F5 scFv-Fc (Fc fusion)
chain: EIQLQQSGAELVKPGASVKMSCKASGYTFRYYNMHWVKRTPGQGLEWIGLIYPDNGDTSYNQKFKGKATLTADTSSSTAYMQLSSLTSEDSAVYYCARGGLDYWGQGTTLTVSSGGGGSGGGGSGGGGSDIVLTQSPASLSASVGETVTITCGASENIYGALNWYQRKQGKSPQLLIYGATNLADGMSSRFSGSGSGRQYSLKISSLHPDDVATYYCQNVLSTPYTFGGGTKLEIKESKYGPPCPPCPAPEAAGGPSVFLFPPKPKDTLMISRTPEVTCVVVDVSQEDPEVQFNWYVDGVEVHNAKTKPREEQFNSTYRVVSVLTVLHQDWLNGKEYKCKVSNKGLPSSIEKTISKAKGQPREPQVYTLPPSQEEMTKNQVSLTCLVKGFYPSDIAVEWESNGQPENNYKTTPPVLDSDGSFFLYSKLTVDKSRWQEGNVFSCSVMHEALHNHYTQKSLSLSLG
notes: scFv-Fc dimer
Consider B6, for which the binding result with FGFR4 (acro) [1] and with FGFR2c (acro) [2] was “no binding (tested: 10 µg/mL)” in each case. For the same molecule, the “OD (450 nm) value” in assay [3] stood at 3.17; with FGFR2c (acro) [5] it was 0.111; with FGFR4 (acro) [6], 0.145. Moreover, the EC50 in assay [4] was 0.0159 mg/L; in the assay with FGFR2b on KATO III cells, 0.105 mg/L. Also, in assay [7], the Kd was determined as 5.1 nM. The molecule also returned a koff in assay [7] of 0.00143 s⁻¹. The molecule further came in with an on-rate (kon) in assay [7] of 281000 M⁻¹ s⁻¹.

In general, EC50 refers to the concentration needed to bring the measured effect to its halfway point. What is called Kd is the free concentration of one partner at which half of the binding sites on the other are occupied at equilibrium, for simple one-to-one binding. For orientation: koff means the first-order rate constant of dissociation. One may read the kon as the rate constant with which the complex forms.
